Experimental data taken from PMC2906322.

Biological target: RhoGDIα S34D (phosphomimetic), bacterially expressed, hexahistidine-tagged (human) (UniProt P52565)
Experiment: pull-down

Sequence of UniProt P52565 (P52565 whole entry S34D): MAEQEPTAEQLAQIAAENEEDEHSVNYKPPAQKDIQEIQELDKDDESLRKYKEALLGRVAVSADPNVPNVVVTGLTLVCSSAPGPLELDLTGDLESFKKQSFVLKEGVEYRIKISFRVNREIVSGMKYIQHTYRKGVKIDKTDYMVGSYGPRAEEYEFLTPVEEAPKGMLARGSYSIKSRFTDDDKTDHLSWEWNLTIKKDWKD

RhoA, endogenous in rat embryo fibroblasts (from UniProt P61589 1-193) (natural protein)
reduction of binding against wild-type RhoGDIα: 75%
